Data on one substance can be found in paper PMC8034618.

What all share (assay): EMSA
Background: In EMSA bound probe runs differently from free probe, usually more slowly.

Series [1] has as its system LARP1 665-947 cluster 6 full phosphomimetic (10 sites) (Homo sapiens). Conditions: tRNA and BSA competitors; stated 4.99-fold reduction; m7Gppp cap; EMSA: 20 mM Tris-HCl pH 8, 150 mM NaCl, 10% glycerol, 1 mM DTT, 0.5 ug tRNA, 1 ug BSA in …; on ice 30 min; 7-8% native 0.5x TBE gel at 4 C; RNA <=200 pM.
The subject of series [2] is LARP1 796-1019 cluster 7 phosphomimetic (Homo sapiens). The conditions noted are these: tRNA and BSA competitors; enhanced relative to WT 796-1019; m7Gppp cap; EMSA: 20 mM Tris-HCl pH 8, 150 mM NaCl, 10% glycerol, 1 mM DTT, 0.5 ug tRNA, 1 ug BSA in 10 ul; on ice 30 min; 7-8% native 0.5x TBE gel at 4 C; RNA <=200 pM.
Series [3] concerns LARP1 665-947 cluster 6 partial phosphomimetic (5 sites) (Homo sapiens). The conditions noted are these: tRNA and BSA competitors; m7Gppp cap; EMSA: 20 mM Tris-HCl pH 8, 150 mM NaCl, 10% glycerol, 1 mM DTT, 0.5 ug tRNA, 1 ug BSA in 10 ul; on ice 30 min; 7-8% native 0.5x TBE gel at 4 C; RNA <=200 pM.

As usually defined, the Kd is the free concentration of one partner at which half of the binding sites on the other are occupied at equilibrium, for simple one-to-one binding. In the case of m7G-RPS6-UTR (capped RPS6 20-mer), the values for the Kd in series [1], in series [2] and in series [3] were 2.84 µM, 0.044 µM and 0.902 µM, respectively.
